The values that follow come from paper PMC7465474, “Interplay of Structural Disorder and Short Binding Elements in the Cellular Chaperone Function of Plant Dehydrin ERD14” (Cells, 2020).

The data set addresses T1, citrate synthase (CS) (E. coli (endogenous in AVB101), UniProt P0ABH7 1-427).
T1 sequence (looked up): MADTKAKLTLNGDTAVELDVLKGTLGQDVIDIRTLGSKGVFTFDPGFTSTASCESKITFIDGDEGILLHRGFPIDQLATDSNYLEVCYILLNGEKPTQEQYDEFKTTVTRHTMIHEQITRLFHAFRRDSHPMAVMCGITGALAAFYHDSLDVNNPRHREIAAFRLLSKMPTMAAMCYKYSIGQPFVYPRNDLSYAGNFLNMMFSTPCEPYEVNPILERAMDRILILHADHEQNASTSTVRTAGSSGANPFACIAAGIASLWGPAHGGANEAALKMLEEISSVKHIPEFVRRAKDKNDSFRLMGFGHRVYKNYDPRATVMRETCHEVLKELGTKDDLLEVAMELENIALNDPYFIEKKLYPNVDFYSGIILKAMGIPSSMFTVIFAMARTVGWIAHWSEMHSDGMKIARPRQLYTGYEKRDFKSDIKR
The data set can be described thus: cell-based or functional assay.

B1: Early Response to Dehydration 14 (ERD14) of A. thaliana, wild type, biotinylated in the cell (natural protein, UniProt P42763 1-185, looked up)
chain: MAEEIKNVPEQEVPKVATEESSAEVTDRGLFDFLGKKKDETKPEETPIASEFEQKVHISEPEPEVKHESLLEKLHRSDSSSSSSSEEEGSDGEKRKKKKEKKKPTTEVEVKEEEKKGFMEKLKEKLPGHKKPEDGSAVAAAPVVVPPPVEEAHPVEKKGILEKIKEKLPGYHPKTTVEEEKKDKE
modifications: biotin (in-cell biotinylation)
In the case of B1, the “enthalpy change of unfolding (ΔHm) of 2 μM CS, two-state fit of the CD thermal denaturation, with 2, 5 and 13 μM purified WT ERD14 (396 falling to 316 kJ/mol; CS alone 475 kJ/mol)” value is 94.6 kcal/mol; the “melting temperature (Tm) of 2 μM CS, thermal denaturation followed by CD at 220 nm, with 2, 5 and 13 μM purified WT ERD14 (50.5 to 55.3 °C; CS alone 49.5 °C)” value worked out at 55.3 °C.
